Assay: soluble fraction after stress (log2 fold change); higher = more stays soluble; pooled small domains, quantitative proteomics
Settings: stress: 75 degC
In the case of “HMAGSGDLNAKYLASIPAPMKAKILKAVANHYGVSISEFEEEVTDKDAEALYEYIPTRSMAVQVLRDMKG”, the “soluble fraction (log2)” value is reported as -0.829. With “HMAGSGLPVPRFVSLADDRVNARAGPGFRFPINWVYLRKGFPVEVVDEFGPWRRIRDIDGVAAWIHLSMLS” the “soluble fraction (log2)” value was -0.654. For “HMAGTAFPVRIMLKGIDRIGLLNEITGYISVAMGVNMRKLNLSTEDGIFEGYIDMLVHDRTVLESMIDNL”, the “soluble fraction (log2)” value was -0.381. In the case of “HMAGTELASIKEIQSLVDRSEEALSARNFFWPKDKSESMLLSFRNMFSRLKLTKMDVQIFHGIFKVMEKS”, the “soluble fraction (log2)” value is reported as 0.24. With “HMAGVSVTSLTTFWRLAADTPDTPSGADDPSGWSRTEPSIPDGYEGKLYRTIRTIMSDGTATWTSPD” the “soluble fraction (log2)” value was -0.728. With “HMAGYDTYMVDRDAELLPWLLETLQRESRSKVKATLQGNGIKVNGKRVTQFNYPLKAGMKVSVSKSK” the “soluble fraction (log2)” value was 0.0362. For “HMAHILDLMELKQILRLHMDGLSNRRISDTLGIHRNTINSYVSQFKASKHGIEELLKLSDYELAQLFP”, the “soluble fraction (log2)” value was -2.49. With “HMAHRYQQIADDLGRRVEAGEFAAGRLLPSEATLSGQYKASRVTVRKALEALRTDGLVESRQGFGWFVAAD” the “soluble fraction (log2)” value was -0.405. With “HMAIADQPISAEHFDKLRQVLNSNTQETIASAKQHWASISNNAEFTNENVTRTLLEEMLAFIKSAS” the “soluble fraction (log2)” value was 0.415. In the case of “HMAIDVQELARTRLRSLRTTLGYSLDELAARTHLSPSTISRLETGKRSLSLDVVVPLAQALHVSLDVLFEA”, the “soluble fraction (log2)” value is reported as -2.67. In the case of “HMAIEGIFEKYQRRSDQLIPILQDVQKEFGYIAPESVRHISRYLRISENQIFGVSSFYAQFRFT”, the “soluble fraction (log2)” value is reported as -0.228. In the case of “HMAIGTDPETGISVVADGTDFIWTRSGATSTIFLRLDSENSYILNVKQGDFEVIDYELGEGQENAINIDQS”, the “soluble fraction (log2)” value is reported as 0.0422. For “HMAIPEVDPAKQGVSATQLAALDALAHRNAGEGRVAGMVNVVIRNGEIVYYKATGPRHIDGGAPLKSTDLF”, the “soluble fraction (log2)” value was -0.148. In the case of “HMAIQGVRLYERTLETGDPWLDRPLSTLSTGTRLIILVRRGGDVLIPKGDTVLLAGDTLVINDS”, the “soluble fraction (log2)” value is reported as -3.85. With “HMAIRPDAAVSSHAVKQRLQSLIRAEDPAAPLSDEALRLALSALGIGVSRRAVAKYRAEMGIPSSSQRKK” the “soluble fraction (log2)” value was -0.492. In the case of “HMAISQYGSQSDEVTKIQTRLKAWGYFDGPVTAYYGSQTTEAVKKFQQKHGLSATGVADAKTLELIGLP”, the “soluble fraction (log2)” value is reported as -0.397. In the case of “HMAITLEQFLSVNPHIRNNLYGNAVELVKDKDFSVLSDKLKASSKWANEPSLYKILSHYDEIIS”, the “soluble fraction (log2)” value is reported as -0.335. For “HMAKDSQSADVLQAIFDGSKVLNGLALDQDMRWDLINGLVMSGRLGVEAIEAEAAKLAKLVEELEFR”, the “soluble fraction (log2)” value was -0.976. For “HMAKETLRANIKDYIQKQIASGVYRPGDRIVETQLAREMNVSQAPVREAILELVSLGLLEERPYSGHMVRQ”, the “soluble fraction (log2)” value was 0.0046. In the case of “HMAKIKVFELKNQINSLIKNKIESKDIIDFIETNFGVKKSHSSALEENEANFIKNYFVHADKA”, the “soluble fraction (log2)” value is reported as -0.264. In the case of “HMAKIPASTVVEIDGAPVVVAVRVNARARSYRLSIPHSGGPLLTLPPHGKWAEAEAFLLRHHNWLAARLHR”, the “soluble fraction (log2)” value is reported as -2.92. With “HMAKQEPTDNGYDIYKVTASVLNVRNGAGTSYAVAYQLSKEDYVEVVSIDKGWAKLKDGKYVSADWITLYK” the “soluble fraction (log2)” value was -2.53. With “HMAKRINVKLIMELSAGGLTQNEIASSRHFSKTSVNLVLKTARELNVSAADLREMSPEEAYRLFFPEK” the “soluble fraction (log2)” value was -1.66. With “HMAKRKTEKTSVLEEIDGVGKARARALLARFGGLSGVKAASPEELRTVRGITPEIAENIRRYFQ” the “soluble fraction (log2)” value was -0.0813. In the case of “HMAKRMRNPNGYGSIVKLSGNRRNPYMVKVNTHMDERYYPVYDILGYYPTWADASIALAKYNDDPYNVS”, the “soluble fraction (log2)” value is reported as -0.777. In the case of “HMAKRQATIVYEGTNVRSGPSTSSAIVKRTGKGESYPIVSTKGDWYEIKLSNGDSAYVASWVVQTVD”, the “soluble fraction (log2)” value is reported as -0.728. In the case of “HMAKRYFVTTGVRVRTKPDTANSEVLTVLDEGSEIDYKGDYNNEWVKINYNGQEAYIAKQYVRSEE”, the “soluble fraction (log2)” value is reported as -0.382. In the case of “HMAKSDLNYLDFKSKLEAGEIAKASVIRNEDTFKVTLQNGEVYNVTSPDYEDFRKELLEAGVDIQVSK”, the “soluble fraction (log2)” value is reported as 0.116. In the case of “HMAKSMRHLIVPSRETSLWRDKLSTNGWLSKGYGIHNLDDYRGIPLNETAPKIIEGLEITELEPIS”, the “soluble fraction (log2)” value is reported as 0.124. In the case of “HMAKTALEQAQAMVAAYVAAEQQILLGKEVRMGGPGIDRWLRFEDLQEVRAGRKEWESTVTRLQNTAA”, the “soluble fraction (log2)” value is reported as -1.27. In the case of “HMAKTGMDALVGRRVVLTKAIAGEGEGLVAVDGDVWRATSPAGSAIPKGTEVRITGYRSIVLEVEPI”, the “soluble fraction (log2)” value is reported as -1.87. In the case of “HMAKYEVVAKDIISRIKQNEFETTLKLPTEDEMIEYYQVSRNTVRSALKLLTSQGIIFSRQGSGFYIRQRS”, the “soluble fraction (log2)” value is reported as -1.95. For “HMALALSGVDLNRNRLTISWQTSKGVSYRVQRSSDLQSWTDVGAERLGNGNRLSHTQALNTESAFLRVII”, the “soluble fraction (log2)” value was -0.0203. For “HMALEGTLARVSVRIPESGVGEIIFSLGGVRRSEAARSVSGRAIPRGTEVVILSYERGIATVQPYEELLTN”, the “soluble fraction (log2)” value was -1.64. With “HMALEVPGIAKDKIYRIFGQLYERQQKWEDAIDYYNRAVFFTLSGTDMILYQEDLSRVKQKISL” the “soluble fraction (log2)” value was -0.283. In the case of “HMALKRVAPQGEDKLSAQLDGVEFDKLIPWLGMLEHDHRIAIVNLSIDRANATGLVNARVIL”, the “soluble fraction (log2)” value is reported as 0.115. In the case of “HMALKSGVIAHAVDDAVMRGLNVFTVSDDGSIVSMKDNDIVLGKDGKSPYSVSEWLEELKPNVPHWFG”, the “soluble fraction (log2)” value is reported as -0.166. For “HMALKSYEDMVGKTGVAYTVLRPSGKVIINDELFDATARSGMIEKGNEVIIYDYKNAQLIVEK”, the “soluble fraction (log2)” value was 0.263. For “HMALPASLSPREREIVSLISQGKTNSEIASLLYISVPTVKTHISNIFQKTGVSNRTSLLNRLRMS”, the “soluble fraction (log2)” value was -0.996. In the case of “HMALPHEIKQKWLEEIMTMLRSSDSVTINKVYLHFPENKSHWVDEILTDLSNTHMITRQHDFIRLKN”, the “soluble fraction (log2)” value is reported as -0.964. In the case of “HMALQDKYKQLVDTATASGVANLQVREQDGVLYIDGEAPSGSVKDQLWDIYGKIDPNFLSGDVVMNINV”, the “soluble fraction (log2)” value is reported as -0.148. In the case of “HMALQLPFSFAKRHKVLVESAHEPVKVYHTPSTDFAVFAEVRRFLDQTFVLEEIAENRFEELLTSSFQRD”, the “soluble fraction (log2)” value is reported as -1.1. For “HMALSETIYRLRTEHGLSQGDLAAELDVSRQSISKWETGSSVPELDKLVAMSRLFGVSLDELVLGE”, the “soluble fraction (log2)” value was -0.85. With “HMALSLPDDMTIVRKDGSSLEVRLKSRTVTEIHFERISDSETFQFSIDQLDETTRELVEQYPVM” the “soluble fraction (log2)” value was -0.31. With “HMALTAEVLRSLIKHHGLGQSIQRTAKAVGLSASTVKKYFDRIAAANLTWQEAKSRTQEELIASLQPT” the “soluble fraction (log2)” value was -0.813. With “HMALTARDLGLTHRQADVLHLVLQGKPVKLIARDLGLAEGTVKSHVSAVLRALNVTTRTQAIVAAGRLGLM” the “soluble fraction (log2)” value was -2.18. In the case of “HMAMDITLPLAEVRRQSLEQIERQYLNELMSKHLGRINRAAEAAGITTRQLHKLLTKYSIRKEDFK”, the “soluble fraction (log2)” value is reported as -1.25. In the case of “HMAMESDELETLVDQLIVDHPDEWSRFVGGDDGDRKKMQGFFTGQIMKATKGQADGRAVAQLLGQKSA”, the “soluble fraction (log2)” value is reported as 0.0717. In the case of “HMAMLSKREAEILKLTAKGHSSTDIAQRLTISVNTVEFHRRRIMQKLNAANVAEAVGKAAELGLFF”, the “soluble fraction (log2)” value is reported as -2.47. For “HMAMSAGEVVERIREHVGHPATIKELMRVLAIPNEERYRFRRRIKQLVEAGELIRIRGNRYGLADR”, the “soluble fraction (log2)” value was -2.83. With “HMAMTITKIEKTSQQKIYYFTDSGRVFKKMSDRSATIAVDDRVELEGGVLGSKFFVTANGSRVKVKEV” the “soluble fraction (log2)” value was -2.9. With “HMAMYSREKLKKLREDRGLTQYELAKIAGISVVTLNKIESSDSAKPFVKTLNKIAQALGVGIDELS” the “soluble fraction (log2)” value was -1.77. With “HMAMYYVIGGDGQQYGPIDEATVRGWLGEGRVSAASLSFKTGEAQWIPLRDRPELADVLATA” the “soluble fraction (log2)” value was -0.137. For “HMANKLSEQIYGSILKDIVNGVYAPREFISEAQIAAKYGVSKAPVKEAMHILASEGFLLSYPKRGYMVN”, the “soluble fraction (log2)” value was -0.889. For “HMANKQLQEKLKNYISENGSLSSAAKAIGLSPATLSTYLKDKYEGNVANVETRLTEIFETVEAANNLL”, the “soluble fraction (log2)” value was -0.353. In the case of “HMANKTISMTTLKLVIQQLSKGISRQSISAQYHISRNTIKKYEKRIKAMDMKIEDILKLSDEEISNLLQ”, the “soluble fraction (log2)” value is reported as -3. In the case of “HMANLNFDMSQIVASRYQEKAAELGVTAPSLARTDYNTQEQATYEFVAREIIADYYDDRVAPFNDLIPE”, the “soluble fraction (log2)” value is reported as -0.191. With “HMANNPISMIKIRQILRLHIQGRSKLQIAAQTGISRNTLKKYLKEFEASKLTYDEISELSDKDLEDLFIK” the “soluble fraction (log2)” value was -2.86. With “HMANTSAVIKQPGLVKLFAQHFVRNGFNAMKAAEAAGFVRPSPTFVRNLADSKPVKDAISELLGPYNDA” the “soluble fraction (log2)” value was -0.183. For “HMANWRVGQTINALVSDRMPSGGLLLTVGRQSFVTTRDIPVQPGARIMLEVQQVEPKLVLRLVSA”, the “soluble fraction (log2)” value was -1.8. With “HMAPADLSPEERVVLDALALEPVHVDALAAKLGRRSEELLTSLTLMEMRGLAVAHAGSRYSRATMT” the “soluble fraction (log2)” value was -0.14. For “HMAPEEIPLDRVVRLVEQGRVESIVVTGERLEVTLQNGTVYGSTKENGVGFMETLDRYQVPLEQRDFSYEV”, the “soluble fraction (log2)” value was -0.148. With “HMAPELRSDAQMRRLWALAKENGLDEVGFRAFISDATGREVESTKSLTATEAHRLIEELEAP” the “soluble fraction (log2)” value was -0.0689. For “HMAPEPFIVQITASSLNVRKGPGTSYAVAQTVSKGQVFTIVQQQGGWGKLKSGAGWISLKYTAR”, the “soluble fraction (log2)” value was -1.74. For “HMAPEQWYVLTSGQLPKGPYRLRHIVAMSKGDNWLVARKGAEQWTPLRHLPEFRQAQEANEYIQAIS”, the “soluble fraction (log2)” value was -1.48. In the case of “HMAPFSGVEPREWDSLVERGRQSGEVHAEDVTHVLRHVELTGDVLTDVQSKMAEHGITIDDA”, the “soluble fraction (log2)” value is reported as 0.161. With “HMAPGASEVPDLTSLPAREALLRLTKLGLLPEMEGTGRLVRQQPAAGTRVPKGSKVHLVFEPG” the “soluble fraction (log2)” value was 0.123. For “HMAPIEVPYNVFRQQVVEGNVESVATRADTVQGYFETPVTLPARPDAAAAEPVTVERFSTTLPSF”, the “soluble fraction (log2)” value was 0.27. In the case of “HMAPKRIVLRFGKDISDKPIIYYLVKDYDLVINILKANVNPNKEGTLVLELSGENYDKGIEFLISQGVTVQ”, the “soluble fraction (log2)” value is reported as -1.8. For “HMAPKVHLLKVPVDKIREIIGTGGKVIRQITEETGAKIDISDDGSVKVSSPDQSSIDAATTWITGIIAE”, the “soluble fraction (log2)” value was -0.0092.

— the domain aggregation screens of Martell et al. (2025)
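Further: 20 min heating vs room temperature control held 20 min.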
